Assay results taken from US20260049143A1 (KYMAB, published 2026).

T1: Biotinylated human ICOS protein (human, UniProt Q9Y6W8 21-140, limits assumed, biotinylated)
T1 sequence: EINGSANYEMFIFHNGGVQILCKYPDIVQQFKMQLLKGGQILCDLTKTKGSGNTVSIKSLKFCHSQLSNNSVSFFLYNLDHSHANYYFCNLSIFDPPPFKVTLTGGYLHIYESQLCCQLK

T2: human ICOS-mFc (Chimerigen) (human, UniProt Q9Y6W8 21-140, limits assumed)
T2 construct: Bought fusion; also called hICOS; recombinant human ICOS protein; not shown: mouse Fc
T2 sequence: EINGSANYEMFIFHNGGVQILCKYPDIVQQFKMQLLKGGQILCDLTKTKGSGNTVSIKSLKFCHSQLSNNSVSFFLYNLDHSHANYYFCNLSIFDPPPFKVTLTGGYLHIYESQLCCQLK

T3: mouse ICOS expressed on CHO cells (mouse, UniProt Q9WVS0 21-141)
T3 construct: the cell-expressed form may differ; also called mICOS; CHO mouse ICOS
T3 sequence: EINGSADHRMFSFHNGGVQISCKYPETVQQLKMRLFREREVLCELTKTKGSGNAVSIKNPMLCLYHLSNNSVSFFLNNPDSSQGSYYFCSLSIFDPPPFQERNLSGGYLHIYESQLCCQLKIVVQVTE


Columns and labels:
[1] = target: T1, Biotinylated human ICOS protein; assay: avidity SPR (ProteOn), biotinylated hICOS on NLC chip, antibody analyte; apparent KD from equilibrium
Protocol: (§1) Biotinylated human ICOS protein diluted at 7.5 μg/mL in running buffer (1×HBS-EP+Buffer Technova, cat. No. H8022) was captured on a NLC sensor chip (Bio-Rad, cat No 1765021). The surface was then blocked using biocytin (Sigma Aldrich, cat No B1758) at 1 mg/mL.
(§2) The assay was carried out at 25° C.
(§3) The buffer injection (i.e. 0 nM) was used to double reference the sensorgrams. The analysis was carried out using the equilibrium model inherent to the ProteOn's analysis software for each mAb² construct.

[2] = target: T2, human ICOS-mFc (Chimerigen); assay: HTRF neutralisation of human B7-H2 binding to human ICOS-mFc, n1
Protocol: (§4) 5 μl of human ICOS-mFc (Chimerigen) at 20 nM (5 nM final) or 5 μl of mouse ICOS-mFc (Chimerigen) at 4 nM (1 nM final) were added to relevant assay wells. Plate was incubated for 1 hour (hr) at room temperature (RT).
(§5) After incubation, assay was read on Envision plate reader (Perkin Elmer) using a standard HTRF protocol. 620 nm and 665 nm channel values were exported to Microsoft Excel and % Delta-F and % Neutralisation calculations performed. Titration curves and IC50 values [M] were plotted using Graphpad (Prism). IC50 values were calculated by first transforming the data using equation X=Log(X). The transformed data was then fitted using nonlinear regression, using fitting algorithm, log (inhibitor) vs. response-variable slope (four parameters).

[3] = target: T2, human ICOS-mFc (Chimerigen); assay: HTRF neutralisation of human B7-H2 binding to human ICOS-mFc, n3
Protocol: as §4, §5

[4] = target: T2, human ICOS-mFc (Chimerigen); assay: DELFIA ELISA, coated human ICOS-mFc, N=3
Protocol: Recombinant ICOS proteins, human ICOS-mFc or mouse ICOS-mFc (Chimerigen) were diluted in 1×PBS and added to Black Hi-bind plates (Griener) at 1 μg/ml, 50 μl/well. Recombinant PD-L1 proteins, human PD-L1-Flag-His or mouse-His were diluted in 1×PBS and added to Black Hi-bind plates (Griener) at 4 μg/ml, 50 μl/well. The plates were left overnight at 4° C. The next day plates were washed 3× with 300 μl/well of 1×PBS+0.1% Tween and blocked with 200 μl/well of 1×PBS+1% BSA blocking buffer for 1 hr at RT on a plate shaker. Plates were washed 3× with 300 μl/well of 1×PBS+0.1% Tween.
However, human-PD-L1 mAb² antibodies were diluted in 1×PBS+0.1% BSA buffer and diluted 1 in 2 from a starting working concentration of 0.066 μM over an 11 point titration. Titrated antibodies were added to the plates, 50 μl/well and left to incubate for 1 hr at R.T on a plate shaker. Plates were washed 3× with 300 μl/well of 1×PBS+0.1% Tween.
DELFIA® Eu-labelled Anti-human IgG(Perkin-Elmer) was diluted 1:500 in DELFIA Assay buffer (Perkin-Elmer) and added to the assay plate (50 μl/well), left to incubate for 1 hr at RT on a plate shaker. […] After incubation, assay was read on Envision plate reader (Perkin Elmer), Time-resolved fluorescence (TRF) was measured at 615 nm.

[5] = target: T3, mouse ICOS expressed on CHO cells; assay: flow cytometry, CHO mouse ICOS cells, anti-human IgG AF647, N=2
Protocol: (§6) CHO-S cells transfected with either human ICOS or mouse ICOS were resuspended in FACS buffer (PBS+1% w/v BSA+0.1% w/v sodium azide) and transferred to a 96-well V-bottom plate (Greiner) at a density of 1×10⁵ cells per well. mAb and mAb² were titrated in FACS buffer, 1 in 3 dilution across 11 points from a starting working concentration of 400 nM. Plates were centrifuged at 300×g for 3 minutes, supernatant discarded and 50 μL mAb or mAb² solution were added to cells and incubated at 4° C. for 1 hour. Cells were washed with 150 μL of PBS and centrifuged at 300×g for 3 minutes, supernatant was discarded and cell pellet resuspended in 150 μL PBS added. This wash step was repeated twice. […] Cells were incubated for 1 hour at 4° C. in the dark. Cells were washed with 150 μL of PBS and centrifuged at 300 g for 3 minutes, supernatant was discarded and cell pellet resuspended in 150 μL PBS added. This wash step was repeated twice. Cells were fixed with 25 μL 4% v/v paraformaldehyde, incubated for 20 minutes at 4° C., cells were pelleted by centrifugation at 300×g and the supernatant discarded. Cells were washed with 150 μL of PBS and centrifuged at 300 g for 3 minutes, supernatant was discarded and cell pellet resuspended in 150 μL PBS added. This wash step was repeated. Pelleted cells were resuspended in 110 μL 1×PBS.

[6] = target: T1, Biotinylated human ICOS protein; assay: avidity SPR (ProteOn), biotinylated hICOS on NLC chip, antibody analyte
Protocol: as §1, §2, §3

[7] = target: T2, human ICOS-mFc (Chimerigen); assay: HTRF neutralisation of human B7-H2 binding to human ICOS-mFc, n2
Protocol: as §4, §5

[8] = target: T3, mouse ICOS expressed on CHO cells; assay: flow cytometry, CHO mouse ICOS cells, anti-human IgG AF647, N=1
Protocol: as §6

[9] = target: T3, mouse ICOS expressed on CHO cells; assay: flow cytometry, CHO mouse ICOS cells, anti-human IgG AF647, N=3
Protocol: as §6

Kd [1] [nM]	IC50 [2] [nM]	IC50 [3] [nM]	EC50 [4] [nM]	EC50 [5] [nM]	koff [6] [s⁻¹]	IC50 [7] [nM]	EC50 [8] [nM]	EC50 [9] [nM]	Binder
0.9	0.44	0.77	0.401	11	0.000244	0.47	8.92	11.9	STIM003_457 (bispecific antibody, V domains shown, not shown: a dimerising Fc or GST, mAb^2 IgG1; also called ST1M003_457; STIM003_457 mAb^2) VH: EVQLVESGGGVVRPGGSLRLSCVASGVTFDDYGMSWVRQAPGKGLEWVSGINWNGGDTDYSDSVKGRFTISRDNAKNSLYLQMNSLRAEDTALYYCARDFYGSGSYYHVPFDYWGQGILVTVSS VL: EIVLTQSPGTLSLSPGERATLSCRASQSVSRSYLAWYQQKRGQAPRLLIYGASSRATGIPDRFSGDGSGTDFTLSISRLEPEDFAVYYCHQYDMSPFTFGPGTKVDIK
9.2	1.1	2.38	9.17	3.53	0.000346	1.32	5.14	6.97	STIM001_457 (bispecific antibody, V domains shown, not shown: a dimerising Fc or GST, mAb^2 IgG1; also called STIM001_457 mAb^2) VH: QVQVVQSGAEVKKPGASVKVSCKASGYTFSTFGITWVRQAPGQGLEWMGWISAYNGDTNYAQNLQGRVIMTTDTSTSTAYMELRSLRSDDTAVYYCARSSGHYYYYGMDVWGQGTTVTVSS VL: DIVMTQSPLSLPVTPGEPASISCRSSQSLLHSNEYNYLDWYLQKPGQSPQLLIFLGSNRASGVPDRFSGSGSGTDFTLKITRVEAEDVGIYYCMQSLQTPLTFGGGTKVEIK
